{"source": "the Human Domainome abundance scans (Beltran et al. 2025)", "parents": {"B1": {"name": "Zinc finger MYM-type protein 3, residues 405 to 444; numbered along this chain, Q14202 (parent)", "chain": "DATRCSICQKTGEVLHEVSNGSVVHRLCSDSCFSKFRANK"}}, "note": "± gives the uncertainty stated by the source."}
{"variants_of": "B1", "assay": "abundance fitness (aPCA) (normalised: wild type 0, dead -1); higher = more abundant; growth selection in yeast, the domain comes from the species named", "conditions": "Homo sapiens"}
{"variant": "DATRCSICQKTGEVLHEVSNGSVTHRLCSDSCFSKFRANK", "abundance fitness": "-0.038 ± 0.061"}
{"variant": "DATRCSICQKTGEVLHEVSNGSVWHRLCSDSCFSKFRANK", "abundance fitness": "-0.292 ± 0.066"}
{"variant": "DATRCSICQKTGEVLHEVSNGSVYHRLCSDSCFSKFRANK", "abundance fitness": "-0.133 ± 0.072"}
{"variant": "DATRCSICQKTGEVLHEVSNGSVVARLCSDSCFSKFRANK", "abundance fitness": "-0.122 ± 0.055"}
{"variant": "DATRCSICQKTGEVLHEVSNGSVVERLCSDSCFSKFRANK", "abundance fitness": "0.205 ± 0.058"}
{"variant": "DATRCSICQKTGEVLHEVSNGSVVGRLCSDSCFSKFRANK", "abundance fitness": "-0.164 ± 0.053"}
{"variant": "DATRCSICQKTGEVLHEVSNGSVVIRLCSDSCFSKFRANK", "abundance fitness": "-0.216 ± 0.076"}
{"variant": "DATRCSICQKTGEVLHEVSNGSVVKRLCSDSCFSKFRANK", "abundance fitness": "-0.006 ± 0.061"}
{"variant": "DATRCSICQKTGEVLHEVSNGSVVLRLCSDSCFSKFRANK", "abundance fitness": "-0.266 ± 0.056"}
{"variant": "DATRCSICQKTGEVLHEVSNGSVVMRLCSDSCFSKFRANK", "abundance fitness": "-0.129 ± 0.066"}
{"variant": "DATRCSICQKTGEVLHEVSNGSVVNRLCSDSCFSKFRANK", "abundance fitness": "-0.031 ± 0.081"}
{"variant": "DATRCSICQKTGEVLHEVSNGSVVPRLCSDSCFSKFRANK", "abundance fitness": "-0.363 ± 0.073"}
{"variant": "DATRCSICQKTGEVLHEVSNGSVVQRLCSDSCFSKFRANK", "abundance fitness": "-0.038 ± 0.065"}
{"variant": "DATRCSICQKTGEVLHEVSNGSVVRRLCSDSCFSKFRANK", "abundance fitness": "-0.318 ± 0.054"}
{"variant": "DATRCSICQKTGEVLHEVSNGSVVSRLCSDSCFSKFRANK", "abundance fitness": "-0.138 ± 0.056"}
{"variant": "DATRCSICQKTGEVLHEVSNGSVVTRLCSDSCFSKFRANK", "abundance fitness": "-0.046 ± 0.056"}
{"variant": "DATRCSICQKTGEVLHEVSNGSVVVRLCSDSCFSKFRANK", "abundance fitness": "-0.507 ± 0.059"}
{"variant": "DATRCSICQKTGEVLHEVSNGSVVWRLCSDSCFSKFRANK", "abundance fitness": "-0.247 ± 0.061"}
{"variant": "DATRCSICQKTGEVLHEVSNGSVVYRLCSDSCFSKFRANK", "abundance fitness": "-0.385 ± 0.097"}
{"variant": "DATRCSICQKTGEVLHEVSNGSVVHALCSDSCFSKFRANK", "abundance fitness": "-0.02 ± 0.052"}
{"variant": "DATRCSICQKTGEVLHEVSNGSVVHCLCSDSCFSKFRANK", "abundance fitness": "-0.312 ± 0.1"}
{"variant": "DATRCSICQKTGEVLHEVSNGSVVHDLCSDSCFSKFRANK", "abundance fitness": "-0.606 ± 0.16"}
{"variant": "DATRCSICQKTGEVLHEVSNGSVVHELCSDSCFSKFRANK", "abundance fitness": "-0.283 ± 0.063"}
{"variant": "DATRCSICQKTGEVLHEVSNGSVVHFLCSDSCFSKFRANK", "abundance fitness": "-0.177 ± 0.075"}
{"variant": "DATRCSICQKTGEVLHEVSNGSVVHGLCSDSCFSKFRANK", "abundance fitness": "-0.117 ± 0.053"}
{"variant": "DATRCSICQKTGEVLHEVSNGSVVHHLCSDSCFSKFRANK", "abundance fitness": "-0.074 ± 0.062"}
{"variant": "DATRCSICQKTGEVLHEVSNGSVVHILCSDSCFSKFRANK", "abundance fitness": "-0.173 ± 0.073"}
{"variant": "DATRCSICQKTGEVLHEVSNGSVVHKLCSDSCFSKFRANK", "abundance fitness": "0.013 ± 0.074"}
{"variant": "DATRCSICQKTGEVLHEVSNGSVVHLLCSDSCFSKFRANK", "abundance fitness": "-0.196 ± 0.055"}
{"variant": "DATRCSICQKTGEVLHEVSNGSVVHMLCSDSCFSKFRANK", "abundance fitness": "-0.12 ± 0.078"}
{"variant": "DATRCSICQKTGEVLHEVSNGSVVHNLCSDSCFSKFRANK", "abundance fitness": "-0.195 ± 0.077"}
{"variant": "DATRCSICQKTGEVLHEVSNGSVVHPLCSDSCFSKFRANK", "abundance fitness": "-0.074 ± 0.066"}
{"variant": "DATRCSICQKTGEVLHEVSNGSVVHQLCSDSCFSKFRANK", "abundance fitness": "0.097 ± 0.059"}
{"variant": "DATRCSICQKTGEVLHEVSNGSVVHTLCSDSCFSKFRANK", "abundance fitness": "-0.048 ± 0.065"}
{"variant": "DATRCSICQKTGEVLHEVSNGSVVHWLCSDSCFSKFRANK", "abundance fitness": "-0.21 ± 0.061"}
{"variant": "DATRCSICQKTGEVLHEVSNGSVVHYLCSDSCFSKFRANK", "abundance fitness": "-0.339 ± 0.084"}
{"variant": "DATRCSICQKTGEVLHEVSNGSVVHRACSDSCFSKFRANK", "abundance fitness": "-0.393 ± 0.059"}
{"variant": "DATRCSICQKTGEVLHEVSNGSVVHRCCSDSCFSKFRANK", "abundance fitness": "0.032 ± 0.07"}
{"variant": "DATRCSICQKTGEVLHEVSNGSVVHRDCSDSCFSKFRANK", "abundance fitness": "-0.569 ± 0.092"}
{"variant": "DATRCSICQKTGEVLHEVSNGSVVHRECSDSCFSKFRANK", "abundance fitness": "-0.352 ± 0.067"}
{"variant": "DATRCSICQKTGEVLHEVSNGSVVHRFCSDSCFSKFRANK", "abundance fitness": "-0.019 ± 0.15"}
{"variant": "DATRCSICQKTGEVLHEVSNGSVVHRGCSDSCFSKFRANK", "abundance fitness": "-0.331 ± 0.053"}
{"variant": "DATRCSICQKTGEVLHEVSNGSVVHRHCSDSCFSKFRANK", "abundance fitness": "-0.382 ± 0.08"}
{"variant": "DATRCSICQKTGEVLHEVSNGSVVHRICSDSCFSKFRANK", "abundance fitness": "-0.129 ± 0.12"}
{"variant": "DATRCSICQKTGEVLHEVSNGSVVHRKCSDSCFSKFRANK", "abundance fitness": "-0.317 ± 0.069"}
{"variant": "DATRCSICQKTGEVLHEVSNGSVVHRMCSDSCFSKFRANK", "abundance fitness": "0.033 ± 0.073"}
{"variant": "DATRCSICQKTGEVLHEVSNGSVVHRNCSDSCFSKFRANK", "abundance fitness": "-0.618 ± 0.096"}
{"variant": "DATRCSICQKTGEVLHEVSNGSVVHRPCSDSCFSKFRANK", "abundance fitness": "-0.458 ± 0.078"}
{"variant": "DATRCSICQKTGEVLHEVSNGSVVHRQCSDSCFSKFRANK", "abundance fitness": "-0.294 ± 0.07"}
{"variant": "DATRCSICQKTGEVLHEVSNGSVVHRRCSDSCFSKFRANK", "abundance fitness": "-0.393 ± 0.055"}
{"variant": "DATRCSICQKTGEVLHEVSNGSVVHRSCSDSCFSKFRANK", "abundance fitness": "-0.447 ± 0.062"}
{"variant": "DATRCSICQKTGEVLHEVSNGSVVHRVCSDSCFSKFRANK", "abundance fitness": "-0.22 ± 0.056"}
{"variant": "DATRCSICQKTGEVLHEVSNGSVVHRWCSDSCFSKFRANK", "abundance fitness": "-0.205 ± 0.056"}
{"variant": "DATRCSICQKTGEVLHEVSNGSVVHRYCSDSCFSKFRANK", "abundance fitness": "-0.056 ± 0.1"}
{"variant": "DATRCSICQKTGEVLHEVSNGSVVHRLASDSCFSKFRANK", "abundance fitness": "-0.594 ± 0.058"}
{"variant": "DATRCSICQKTGEVLHEVSNGSVVHRLDSDSCFSKFRANK", "abundance fitness": "-0.529 ± 0.081"}
{"variant": "DATRCSICQKTGEVLHEVSNGSVVHRLESDSCFSKFRANK", "abundance fitness": "-0.576 ± 0.069"}
{"variant": "DATRCSICQKTGEVLHEVSNGSVVHRLFSDSCFSKFRANK", "abundance fitness": "-1.09 ± 0.12"}
{"variant": "DATRCSICQKTGEVLHEVSNGSVVHRLGSDSCFSKFRANK", "abundance fitness": "-0.623 ± 0.054"}
{"variant": "DATRCSICQKTGEVLHEVSNGSVVHRLHSDSCFSKFRANK", "abundance fitness": "-0.733 ± 0.086"}
{"variant": "DATRCSICQKTGEVLHEVSNGSVVHRLISDSCFSKFRANK", "abundance fitness": "-0.95 ± 0.18"}
{"variant": "DATRCSICQKTGEVLHEVSNGSVVHRLKSDSCFSKFRANK", "abundance fitness": "-0.823 ± 0.097"}
{"variant": "DATRCSICQKTGEVLHEVSNGSVVHRLLSDSCFSKFRANK", "abundance fitness": "-0.886 ± 0.062"}
